91 sequences from the supplement of paper PMC9112550, “Optimization of the antimicrobial peptide Bac7 by deep mutational scanning” (BMC Biology, 2022) can be followed below.

The test system of the data set is Escherichia coli TOP10. Nature of the data set: shrunken log2 fold change of peptide-encoding DNA abundance (4.5 h post-induction vs induction); higher = less antimicrobial activity (less host growth inhibition). The settings on record: time post-induction: 4.5 h; library: site-saturation at positions 5, 18, 19, 20.
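Note: peptides expressed intracellularly from a pBAD plasmid library in pooled LB shake-flask culture, induced with 0.3% L-arabinose, DNA abundance read by NGS, three biological replicates, DESeq2 with apeglm shrinkage.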

Take RRIRDRPPRLPRPRPRPPNRPRP: the “shrunken log2 fold change” value came to 0.789.

Take RRIRPRPPRLPRPRPRPSFPPRP: the “shrunken log2 fold change” value was -0.0649.

For the sequence RRIRARPPRLPRPRPRPIMKPRP, the “shrunken log2 fold change” value was found to be 0.102.

Regarding RRIRRRPPRLPRPRPRPMWTPRP, the “shrunken log2 fold change” value is -0.132.

RRIRTRPPRLPRPRPRPEHTPRP: the “shrunken log2 fold change” value is -0.174.

As to RRIRVRPPRLPRPRPRPDCKPRP, the “shrunken log2 fold change” value was -0.104.

Consider RRIRDRPPRLPRPRPRPMGVPRP, for which the “shrunken log2 fold change” value turned out to be 0.0778.

Regarding RRIRFRPPRLPRPRPRPDIIPRP, the “shrunken log2 fold change” value is 0.0368.

As for RRIRDRPPRLPRPRPRPPQRPRP, the “shrunken log2 fold change” value was 0.719.

Regarding RRIRKRPPRLPRPRPRPNMRPRP, the “shrunken log2 fold change” value came to 0.334.

As for RRIRDRPPRLPRPRPRPTRPPRP, the “shrunken log2 fold change” value is 1.13.

RRIRYRPPRLPRPRPRPLYRPRP: the “shrunken log2 fold change” value is -0.335.

As to RRIRIRPPRLPRPRPRPIGGPRP, the “shrunken log2 fold change” value was -0.0686.

Regarding RRIRVRPPRLPRPRPRPHSRPRP, the “shrunken log2 fold change” value was 0.0978.

With RRIRYRPPRLPRPRPRPWLVPRP, the “shrunken log2 fold change” value was -0.096.

In the case of RRIRSRPPRLPRPRPRPWETPRP, the “shrunken log2 fold change” value is -0.0029.

Turning to RRIRARPPRLPRPRPRPGWRPRP, the “shrunken log2 fold change” value came to 0.473.

On to RRIRVRPPRLPRPRPRPQVQPRP, for which the “shrunken log2 fold change” value is -0.208.

In the case of RRIRCRPPRLPRPRPRPCVTPRP, the “shrunken log2 fold change” value is 0.0974.

With RRIRCRPPRLPRPRPRPGFTPRP, the “shrunken log2 fold change” value was -0.131.

RRIRHRPPRLPRPRPRPYTEPRP: the “shrunken log2 fold change” value was -0.204.

Turning to RRIRKRPPRLPRPRPRPKDYPRP, the “shrunken log2 fold change” value was -0.0531.

For the sequence RRIRARPPRLPRPRPRPLHMPRP, the “shrunken log2 fold change” value was 1.15.

Take RRIRPRPPRLPRPRPRPFWMPRP: the “shrunken log2 fold change” value is -0.00291.

For the sequence RRIRCRPPRLPRPRPRPELDPRP, the “shrunken log2 fold change” value was 0.00162.

For the sequence RRIRWRPPRLPRPRPRPCSGPRP, the “shrunken log2 fold change” value is -0.0411.

For the sequence RRIRYRPPRLPRPRPRPKSFPRP, the “shrunken log2 fold change” value is -0.0139.

Regarding RRIRCRPPRLPRPRPRPRNRPRP, the “shrunken log2 fold change” value stood at 0.239.

For RRIRSRPPRLPRPRPRPVISPRP, the “shrunken log2 fold change” value is 0.141.

On to RRIRSRPPRLPRPRPRPCEQPRP, for which the “shrunken log2 fold change” value worked out at 0.000312.

For RRIRPRPPRLPRPRPRPWQKPRP, the “shrunken log2 fold change” value is -0.179.

As to RRIRKRPPRLPRPRPRPVLMPRP, the “shrunken log2 fold change” value is 0.471.

Turning to RRIRERPPRLPRPRPRPNLVPRP, the “shrunken log2 fold change” value is -0.0264.

For RRIRVRPPRLPRPRPRPKALPRP, the “shrunken log2 fold change” value came out at 0.0497.

Consider RRIRPRPPRLPRPRPRPAEEPRP, for which the “shrunken log2 fold change” value was determined as 0.2.

In the case of RRIRWRPPRLPRPRPRPPCNPRP, the “shrunken log2 fold change” value worked out at 0.0762.

Regarding RRIRQRPPRLPRPRPRPLCTPRP, the “shrunken log2 fold change” value was -0.543.

For the sequence RRIRSRPPRLPRPRPRPYTYPRP, the “shrunken log2 fold change” value was -0.0783.

Take RRIRRRPPRLPRPRPRPDAVPRP: the “shrunken log2 fold change” value stood at 0.462.

For the sequence RRIRTRPPRLPRPRPRPCRRPRP, the “shrunken log2 fold change” value is -0.111.

On to RRIRKRPPRLPRPRPRPSCAPRP, for which the “shrunken log2 fold change” value was 0.523.

Consider RRIRRRPPRLPRPRPRPLNYPRP, for which the “shrunken log2 fold change” value was -0.365.

For RRIRWRPPRLPRPRPRPSWKPRP, the “shrunken log2 fold change” value was -0.0536.

In the case of RRIRARPPRLPRPRPRPSLEPRP, the “shrunken log2 fold change” value is 0.455.

RRIRPRPPRLPRPRPRPQMPPRP: the “shrunken log2 fold change” value was -0.451.

As for RRIRYRPPRLPRPRPRPWIIPRP, the “shrunken log2 fold change” value is -0.384.

Turning to RRIRQRPPRLPRPRPRPLRWPRP, the “shrunken log2 fold change” value turned out to be 0.585.

RRIRHRPPRLPRPRPRPIVTPRP: the “shrunken log2 fold change” value was -0.388.

For the sequence RRIRCRPPRLPRPRPRPMPAPRP, the “shrunken log2 fold change” value turned out to be 0.849.

RRIRNRPPRLPRPRPRPRYSPRP: the “shrunken log2 fold change” value was -0.309.

On to RRIRIRPPRLPRPRPRPQWVPRP, for which the “shrunken log2 fold change” value was -0.023.

For the sequence RRIRTRPPRLPRPRPRPRLYPRP, the “shrunken log2 fold change” value turned out to be 0.0155.

Consider RRIRIRPPRLPRPRPRPGFCPRP, for which the “shrunken log2 fold change” value turned out to be 0.135.

As for RRIRERPPRLPRPRPRPIFYPRP, the “shrunken log2 fold change” value is -0.385.

As to RRIRWRPPRLPRPRPRPMSTPRP, the “shrunken log2 fold change” value is -0.111.

For RRIRTRPPRLPRPRPRPIMHPRP, the “shrunken log2 fold change” value is -0.176.

Regarding RRIRYRPPRLPRPRPRPFACPRP, the “shrunken log2 fold change” value amounted to 0.0731.

For the sequence RRIRERPPRLPRPRPRPLAAPRP, the “shrunken log2 fold change” value was -0.0502.

RRIRMRPPRLPRPRPRPMYIPRP: the “shrunken log2 fold change” value was -0.0178.

Take RRIRIRPPRLPRPRPRPLWYPRP: the “shrunken log2 fold change” value was -0.551.

Regarding RRIRKRPPRLPRPRPRPIPAPRP, the “shrunken log2 fold change” value worked out at 0.945.

Take RRIRERPPRLPRPRPRPRHDPRP: the “shrunken log2 fold change” value was -0.328.

On to RRIRERPPRLPRPRPRPASVPRP, for which the “shrunken log2 fold change” value is -0.0789.

Regarding RRIRARPPRLPRPRPRPVFPPRP, the “shrunken log2 fold change” value was determined as 0.207.

For the sequence RRIRPRPPRLPRPRPRPHQPPRP, the “shrunken log2 fold change” value is -0.129.

In the case of RRIRFRPPRLPRPRPRPCPDPRP, the “shrunken log2 fold change” value was -0.45.

As to RRIRARPPRLPRPRPRPWEMPRP, the “shrunken log2 fold change” value stood at 0.00132.

With RRIRCRPPRLPRPRPRPTSCPRP, the “shrunken log2 fold change” value was -0.0641.

With RRIRARPPRLPRPRPRPDHWPRP, the “shrunken log2 fold change” value is 0.0446.

As to RRIRDRPPRLPRPRPRPAFNPRP, the “shrunken log2 fold change” value was -0.223.

For RRIRPRPPRLPRPRPRPKGLPRP, the “shrunken log2 fold change” value turned out to be 0.062.

RRIRCRPPRLPRPRPRPNSFPRP: the “shrunken log2 fold change” value is -0.58.

RRIRNRPPRLPRPRPRPQKRPRP: the “shrunken log2 fold change” value is -0.034.

In the case of RRIRQRPPRLPRPRPRPPVVPRP, the “shrunken log2 fold change” value was found to be 0.126.

For RRIRQRPPRLPRPRPRPDNHPRP, the “shrunken log2 fold change” value is -0.35.

With RRIRKRPPRLPRPRPRPHMKPRP, the “shrunken log2 fold change” value was -0.0471.

As for RRIRWRPPRLPRPRPRPNHCPRP, the “shrunken log2 fold change” value is -0.0525.

On to RRIRGRPPRLPRPRPRPQPNPRP, for which the “shrunken log2 fold change” value is 0.679.

As for RRIRNRPPRLPRPRPRPTYEPRP, the “shrunken log2 fold change” value is -0.172.

Turning to RRIRCRPPRLPRPRPRPNEYPRP, the “shrunken log2 fold change” value was -0.587.

With RRIRSRPPRLPRPRPRPRFFPRP, the “shrunken log2 fold change” value is 0.108.

Turning to RRIRGRPPRLPRPRPRPYTWPRP, the “shrunken log2 fold change” value came to 0.0845.

As for RRIRLRPPRLPRPRPRPAYRPRP, the “shrunken log2 fold change” value was -0.0396.

On to RRIRFRPPRLPRPRPRPLSHPRP, for which the “shrunken log2 fold change” value is -0.512.

Consider RRIRCRPPRLPRPRPRPLHQPRP, for which the “shrunken log2 fold change” value is -0.168.

With RRIRKRPPRLPRPRPRPVLDPRP, the “shrunken log2 fold change” value was determined as 0.0689.

Take RRIRKRPPRLPRPRPRPWIMPRP: the “shrunken log2 fold change” value is -0.132.

As to RRIRRRPPRLPRPRPRPRWGPRP, the “shrunken log2 fold change” value was determined as 0.533.

On to RRIRRRPPRLPRPRPRPDKPPRP, for which the “shrunken log2 fold change” value came to 0.583.

In the case of RRIRYRPPRLPRPRPRPATLPRP, the “shrunken log2 fold change” value was -0.307.

For RRIRCRPPRLPRPRPRPLQEPRP, the “shrunken log2 fold change” value turned out to be 0.299.
